Peptide text beside a SMILES is read from it. * marks the point of attachment. Doxorubicin(3'-N) = COc1cccc2c1C(=O)c1c(O)c3c(c(O)c1C2=O)C[C@@](O)(C(=O)CO)C[C@@H]3O[C@H]1C[C@H](N*)[C@H](O)[C@H](C)O1

The values below come from PMC11413795, “Milk-derived extracellular vesicles enable gut-to-tumor oral delivery of tumor-activated doxorubicin prodrugs” (Theranostics, 2024).

A short description of series [1]: Biodistribution after oral administration, NIRF imaging of GI tract. Details: species or system BALB/c mice. To be noted: mouse. Here is the method:
All animal experiments were performed following the International Guide for the Care and Use of Laboratory Animals and were approved by the Korea Institute of Science and Technology. 7-week-old BALB/c mice (n = 3 per each time point) were used to monitor the in vivo biodistribution of mEVs. […] Fluorescence signals in the GI tract were monitored by NIRF imaging. Following the assessment of GI tract distribution, all mice were anesthetized using 2.5% isoflurane gas and dissected to extract their major organs (liver, lung, spleen, heart, and kidney) along with the GI tract, and blood for PK analysis. PK analysis was performed by measuring the fluorescence signal of FDX and mEVs present in the blood at each time point (20 min, 40 min, 1 h, 3 h, 6 h, and 24 h).

Series [2] can be described thus: Systemic toxicity after repeated oral administration. It counts as in vivo, BALB/c mice. To be noted: 10 mg/kg FDX or equivalent, three-day intervals, n = 5. Here is the method: To evaluate the therapeutic efficacy of FDX@mEVs, all controls and FDX@mEVs (PBS, mEVs, FDX, and FDX@mEVs; an equivalent dose of 10 mg/kg of FDX dispersed in 100 μL of PBS) were orally administered to CT26 tumor-bearing mice when the average tumor size reached approximately 50 - 70 mm^3. The CT26 tumor-bearing mice were modeled in the same manner as the previous method by inoculating 1.5 x 10^6 cells into the left flank of 7-week-old BALB/c mice (BALB/cAnNCrlOri). The six-repeated administration was conducted every three days, and tumor sizes and body weights were measured every two days. All subjects were sacrificed three days after the last administration, and blood, major organs, and tumor tissues were collected for the following analysis.
Systemic toxicity of FDX@mEVs was assessed by analyzing hematological parameters and histological assay of major organs. To assess liver damage by FDX@mEVs, AST, and ALT levels were analyzed. In addition, BUN and creatinine levels were also evaluated to confirm renal toxicity. Subsequently, all major organs were used for H&E staining to verify the histological damage of FDX@mEVs. H&E staining was performed according to the same protocol used in our previous study. Briefly, all sections were incubated in Hematoxylin solution for 5 min at RT. All incubated tissue sections were washed using tap water for 3 min. […]

As to `COc1cccc2c1C(=O)c1c(O)c3c(c(O)c1C2=O)C[C@@](O)(C(=O)CO)C[C@@H]3O[C@H]1C[C@H](NC(=O)CNC(=O)[C@H](CCCNC(=N)N)NC(=O)[C@H](CCCNC(=N)N)NC(=O)[C@H](Cc2ccccc2)NC(C)=O)[C@H](O)[C@H](C)O1` [FDX, FRRG-DOX] (Ac-FRRG-{Doxorubicin(3'-N)}), the “in vivo clearance time after oral administration” value in series [1] was at most 3 h. In series [2], the “body weight during repeated oral administration compared to PBS group” value is “no significant changes”.
